Measurements published in patent US20140287471A1, “VARIANT CBH I POLYPEPTIDES WITH REDUCED PRODUCT INHIBITION” (BP CORPORATION NORTN AMERICA INC., priority 2011, published 2014).
Like-named read-outs stand apart in the source and are kept apart here.

Key:
[1] = 4-MUL cellobiose tolerance/inhibition assay, dose-response IC50 (Example 2); type: biochemical; settings: for IC50: averaged IC50 from Tables 8-11; for 268 +411A Expected IC50: expected IC50 (additive values of single mutations); for 268_+411A Synergistic**↑: measured versus expected additive IC50
Method in brief: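 IC50 reflects cellobiose concentration halving activity, fitted by four-parameter dose-response with zero activity fixed at knockout-strain background. Assays used 4-MUL (0.5 mM) with enzyme at 5 μg/mL or less, pH 6 MES, 25 mM gluconolactone blocking BG, cellobiose up to 100 mM; 4-MU fluorescence read.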

[2] = 4-MUL assay, specific activity (Example 2); type: biochemical; settings: for 268— +411 A Measured Specific Activity (SA) / 268— +411 A Δ SA* (change in specific activity; ratio of variant: WT): double mutant 268X+411A
Method in brief: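 Specific activity derived from 4-MU standard curves and HPLC-quantified enzyme. Initial rates were taken over the first 15 min, with an endpoint read at 1 h (pH 10 carbonate quench), all at ex 365/em 450 nm. Conditions: 0.5 mM 4-MUL, 5 μg/mL enzyme, MES pH 6, 25 mM gluconolactone, cellobiose optional.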

[3] = double mutant 268X+411A, read-out: 268_+411A Measured (merged IC50)

Molecule | IC50 [1, 3] [µM] | 268 +411A Expected IC50 ([1]; double mutant 268X+411A) [µM] | 268_+411A Synergistic**↑ ([1]; double mutant 268X+411A) | 268— +411 A Measured Specific Activity (SA) [2] [μmol 4 MU/min/mg CBH I] | 268— +411 A Δ SA* (change in specific activity; ratio of variant: WT) [2] | IC50 ([1]; 268 single substitution, read-out: 268— Measured (merged IC50)) [µM] | 268— Measured Specific Activity (SA) ([2]; 268 single substitution) [μmol 4 MU/min/mg CBH I] | 268— Δ SA* (change in specific activity; ratio of variant: WT) ([2]; 268 single substitution) | IC50 ([1]; double mutant 268A+411X, read-out: 268A+411— Measured (merged IC50)) [µM] | 268A+411— Δ SA* (change in specific activity; ratio of variant: WT) ([2]; double mutant 268A+411X)
268Arg+411A (protein, UniProt P62694 18-513, looked up, variant R411A) Exoglucanase 1: QSACTLQSETHPPLTWQKCSSGGTCTQQTGSVVIDANWRWTHATNSSTNCYDGNTWSSTLCPDNETCAKNCCLDGAAYASTYGVTTSGNSLSIGFVTQSAQKNVGARLYLMASDTTYQEFTLLGNEFSFDVDVSQLPCGLNGALYFVSMDADGGVSKYPTNTAGAKYGTGYCDSQCPRDLKFINGQANVEGWEPSSNNANTGIGGHGSCCSEMDIWEANSISEALTPHPCTTVGQEICEGDGCGGTYSDNRYGGTCDPDGCDWNPYRLGNTSFYGPGSSFTLDTTKKLTVVTQFETSGAINRYYVQNGVTFQQPNAELGSYSGNELNDDYCTAEEAEFGGSSFSDKGGLTQFKKATSGGMVLVMSLWDDYYANMLWLDSTYPTNETSSTPGAVAGSCSTSSGVPAQVESQSPNAKVTFSNIKFGPIGSTGNPSGGNPPGGNRGTTTTRRPATTTGSSPGPTQSHYGQCGGIGYSGPTVCASGTTCQVLNPYYSQCL | 1220 | 1220 | 1.0 | 0.53 | 0.7 | – | – | – | – | –
268Cys+411A (protein, UniProt P62694 18-513, looked up, variant R268C R411A) Exoglucanase 1: QSACTLQSETHPPLTWQKCSSGGTCTQQTGSVVIDANWRWTHATNSSTNCYDGNTWSSTLCPDNETCAKNCCLDGAAYASTYGVTTSGNSLSIGFVTQSAQKNVGARLYLMASDTTYQEFTLLGNEFSFDVDVSQLPCGLNGALYFVSMDADGGVSKYPTNTAGAKYGTGYCDSQCPRDLKFINGQANVEGWEPSSNNANTGIGGHGSCCSEMDIWEANSISEALTPHPCTTVGQEICEGDGCGGTYSDNCYGGTCDPDGCDWNPYRLGNTSFYGPGSSFTLDTTKKLTVVTQFETSGAINRYYVQNGVTFQQPNAELGSYSGNELNDDYCTAEEAEFGGSSFSDKGGLTQFKKATSGGMVLVMSLWDDYYANMLWLDSTYPTNETSSTPGAVAGSCSTSSGVPAQVESQSPNAKVTFSNIKFGPIGSTGNPSGGNPPGGNRGTTTTRRPATTTGSSPGPTQSHYGQCGGIGYSGPTVCASGTTCQVLNPYYSQCL | – | 1560 | 14.4 | – | 0.2 | – | – | – | – | –
268His+411A (protein, UniProt P62694 18-513, looked up, variant R268H R411A) Exoglucanase 1: QSACTLQSETHPPLTWQKCSSGGTCTQQTGSVVIDANWRWTHATNSSTNCYDGNTWSSTLCPDNETCAKNCCLDGAAYASTYGVTTSGNSLSIGFVTQSAQKNVGARLYLMASDTTYQEFTLLGNEFSFDVDVSQLPCGLNGALYFVSMDADGGVSKYPTNTAGAKYGTGYCDSQCPRDLKFINGQANVEGWEPSSNNANTGIGGHGSCCSEMDIWEANSISEALTPHPCTTVGQEICEGDGCGGTYSDNHYGGTCDPDGCDWNPYRLGNTSFYGPGSSFTLDTTKKLTVVTQFETSGAINRYYVQNGVTFQQPNAELGSYSGNELNDDYCTAEEAEFGGSSFSDKGGLTQFKKATSGGMVLVMSLWDDYYANMLWLDSTYPTNETSSTPGAVAGSCSTSSGVPAQVESQSPNAKVTFSNIKFGPIGSTGNPSGGNPPGGNRGTTTTRRPATTTGSSPGPTQSHYGQCGGIGYSGPTVCASGTTCQVLNPYYSQCL | 5270 | 1410 | 3.7 | 1.35 | 1.8 | – | – | – | – | –
268Ser+411A (protein, UniProt P62694 18-513, looked up, variant R268S R411A) Exoglucanase 1: QSACTLQSETHPPLTWQKCSSGGTCTQQTGSVVIDANWRWTHATNSSTNCYDGNTWSSTLCPDNETCAKNCCLDGAAYASTYGVTTSGNSLSIGFVTQSAQKNVGARLYLMASDTTYQEFTLLGNEFSFDVDVSQLPCGLNGALYFVSMDADGGVSKYPTNTAGAKYGTGYCDSQCPRDLKFINGQANVEGWEPSSNNANTGIGGHGSCCSEMDIWEANSISEALTPHPCTTVGQEICEGDGCGGTYSDNSYGGTCDPDGCDWNPYRLGNTSFYGPGSSFTLDTTKKLTVVTQFETSGAINRYYVQNGVTFQQPNAELGSYSGNELNDDYCTAEEAEFGGSSFSDKGGLTQFKKATSGGMVLVMSLWDDYYANMLWLDSTYPTNETSSTPGAVAGSCSTSSGVPAQVESQSPNAKVTFSNIKFGPIGSTGNPSGGNPPGGNRGTTTTRRPATTTGSSPGPTQSHYGQCGGIGYSGPTVCASGTTCQVLNPYYSQCL | 9570 | 1670 | 5.7 | 1.59 | 2.1 | – | – | – | – | –
268Gln+411A (protein, UniProt P62694 18-513, looked up, variant R268Q R411A) Exoglucanase 1: QSACTLQSETHPPLTWQKCSSGGTCTQQTGSVVIDANWRWTHATNSSTNCYDGNTWSSTLCPDNETCAKNCCLDGAAYASTYGVTTSGNSLSIGFVTQSAQKNVGARLYLMASDTTYQEFTLLGNEFSFDVDVSQLPCGLNGALYFVSMDADGGVSKYPTNTAGAKYGTGYCDSQCPRDLKFINGQANVEGWEPSSNNANTGIGGHGSCCSEMDIWEANSISEALTPHPCTTVGQEICEGDGCGGTYSDNQYGGTCDPDGCDWNPYRLGNTSFYGPGSSFTLDTTKKLTVVTQFETSGAINRYYVQNGVTFQQPNAELGSYSGNELNDDYCTAEEAEFGGSSFSDKGGLTQFKKATSGGMVLVMSLWDDYYANMLWLDSTYPTNETSSTPGAVAGSCSTSSGVPAQVESQSPNAKVTFSNIKFGPIGSTGNPSGGNPPGGNRGTTTTRRPATTTGSSPGPTQSHYGQCGGIGYSGPTVCASGTTCQVLNPYYSQCL | 9130 | – | – | 2.13 | 2.8 | – | – | – | – | –
268Lys+411A (protein, UniProt P62694 18-513, looked up, variant R268K R411A) Exoglucanase 1: QSACTLQSETHPPLTWQKCSSGGTCTQQTGSVVIDANWRWTHATNSSTNCYDGNTWSSTLCPDNETCAKNCCLDGAAYASTYGVTTSGNSLSIGFVTQSAQKNVGARLYLMASDTTYQEFTLLGNEFSFDVDVSQLPCGLNGALYFVSMDADGGVSKYPTNTAGAKYGTGYCDSQCPRDLKFINGQANVEGWEPSSNNANTGIGGHGSCCSEMDIWEANSISEALTPHPCTTVGQEICEGDGCGGTYSDNKYGGTCDPDGCDWNPYRLGNTSFYGPGSSFTLDTTKKLTVVTQFETSGAINRYYVQNGVTFQQPNAELGSYSGNELNDDYCTAEEAEFGGSSFSDKGGLTQFKKATSGGMVLVMSLWDDYYANMLWLDSTYPTNETSSTPGAVAGSCSTSSGVPAQVESQSPNAKVTFSNIKFGPIGSTGNPSGGNPPGGNRGTTTTRRPATTTGSSPGPTQSHYGQCGGIGYSGPTVCASGTTCQVLNPYYSQCL | 6140 | 1290 | 4.8 | – | 0.7 | – | – | – | – | –
268Ala (protein, UniProt P62694 18-513, looked up, variant R268A) Exoglucanase 1: QSACTLQSETHPPLTWQKCSSGGTCTQQTGSVVIDANWRWTHATNSSTNCYDGNTWSSTLCPDNETCAKNCCLDGAAYASTYGVTTSGNSLSIGFVTQSAQKNVGARLYLMASDTTYQEFTLLGNEFSFDVDVSQLPCGLNGALYFVSMDADGGVSKYPTNTAGAKYGTGYCDSQCPRDLKFINGQANVEGWEPSSNNANTGIGGHGSCCSEMDIWEANSISEALTPHPCTTVGQEICEGDGCGGTYSDNAYGGTCDPDGCDWNPYRLGNTSFYGPGSSFTLDTTKKLTVVTQFETSGAINRYYVQNGVTFQQPNAELGSYSGNELNDDYCTAEEAEFGGSSFSDKGGLTQFKKATSGGMVLVMSLWDDYYANMLWLDSTYPTNETSSTPGAVRGSCSTSSGVPAQVESQSPNAKVTFSNIKFGPIGSTGNPSGGNPPGGNRGTTTTRRPATTTGSSPGPTQSHYGQCGGIGYSGPTVCASGTTCQVLNPYYSQCL | – | – | – | – | – | 570 | 2.97 | 3.9 | – | –
268Pro+411A (protein, UniProt P62694 18-513, looked up, variant R268P R411A) Exoglucanase 1: QSACTLQSETHPPLTWQKCSSGGTCTQQTGSVVIDANWRWTHATNSSTNCYDGNTWSSTLCPDNETCAKNCCLDGAAYASTYGVTTSGNSLSIGFVTQSAQKNVGARLYLMASDTTYQEFTLLGNEFSFDVDVSQLPCGLNGALYFVSMDADGGVSKYPTNTAGAKYGTGYCDSQCPRDLKFINGQANVEGWEPSSNNANTGIGGHGSCCSEMDIWEANSISEALTPHPCTTVGQEICEGDGCGGTYSDNPYGGTCDPDGCDWNPYRLGNTSFYGPGSSFTLDTTKKLTVVTQFETSGAINRYYVQNGVTFQQPNAELGSYSGNELNDDYCTAEEAEFGGSSFSDKGGLTQFKKATSGGMVLVMSLWDDYYANMLWLDSTYPTNETSSTPGAVAGSCSTSSGVPAQVESQSPNAKVTFSNIKFGPIGSTGNPSGGNPPGGNRGTTTTRRPATTTGSSPGPTQSHYGQCGGIGYSGPTVCASGTTCQVLNPYYSQCL | 8570 | 1700 | 5.1 | 2.16 | 2.8 | – | – | – | – | –
268A+411Ile (protein, UniProt P62694 18-513, looked up, variant R268A R411I) Exoglucanase 1: QSACTLQSETHPPLTWQKCSSGGTCTQQTGSVVIDANWRWTHATNSSTNCYDGNTWSSTLCPDNETCAKNCCLDGAAYASTYGVTTSGNSLSIGFVTQSAQKNVGARLYLMASDTTYQEFTLLGNEFSFDVDVSQLPCGLNGALYFVSMDADGGVSKYPTNTAGAKYGTGYCDSQCPRDLKFINGQANVEGWEPSSNNANTGIGGHGSCCSEMDIWEANSISEALTPHPCTTVGQEICEGDGCGGTYSDNAYGGTCDPDGCDWNPYRLGNTSFYGPGSSFTLDTTKKLTVVTQFETSGAINRYYVQNGVTFQQPNAELGSYSGNELNDDYCTAEEAEFGGSSFSDKGGLTQFKKATSGGMVLVMSLWDDYYANMLWLDSTYPTNETSSTPGAVIGSCSTSSGVPAQVESQSPNAKVTFSNIKFGPIGSTGNPSGGNPPGGNRGTTTTRRPATTTGSSPGPTQSHYGQCGGIGYSGPTVCASGTTCQVLNPYYSQCL | – | – | – | – | – | – | – | – | 32700 | 0.5
